Assay results taken from paper doi:10.1101/2023.09.21.558905.

T1: GUN1 (132-918) (Arabidopsis thaliana, UniProt Q9SIC9 132-918)
T1 sequence: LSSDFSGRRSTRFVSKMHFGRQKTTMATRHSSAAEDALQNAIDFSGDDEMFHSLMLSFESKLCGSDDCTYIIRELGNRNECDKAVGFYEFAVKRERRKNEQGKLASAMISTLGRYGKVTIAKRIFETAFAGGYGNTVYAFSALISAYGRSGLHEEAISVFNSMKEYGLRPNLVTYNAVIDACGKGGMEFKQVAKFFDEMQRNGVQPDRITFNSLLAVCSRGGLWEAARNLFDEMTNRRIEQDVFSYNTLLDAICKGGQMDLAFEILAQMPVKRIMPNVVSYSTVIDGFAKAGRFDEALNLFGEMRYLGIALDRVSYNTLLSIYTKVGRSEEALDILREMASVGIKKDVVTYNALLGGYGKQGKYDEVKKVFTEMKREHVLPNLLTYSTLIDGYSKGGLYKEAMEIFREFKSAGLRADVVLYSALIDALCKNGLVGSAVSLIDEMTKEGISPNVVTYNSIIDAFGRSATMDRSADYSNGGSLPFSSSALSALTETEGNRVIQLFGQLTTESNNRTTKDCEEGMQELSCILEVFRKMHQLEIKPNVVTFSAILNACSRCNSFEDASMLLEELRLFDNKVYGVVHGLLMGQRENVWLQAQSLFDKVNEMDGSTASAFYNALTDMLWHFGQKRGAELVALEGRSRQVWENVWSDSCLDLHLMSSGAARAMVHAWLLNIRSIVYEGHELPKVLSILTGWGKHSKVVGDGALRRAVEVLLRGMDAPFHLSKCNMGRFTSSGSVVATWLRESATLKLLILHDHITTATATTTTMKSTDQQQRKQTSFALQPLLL


Target: T1, GUN1 (132-918)
Experiment: EMSA

Question: Does GGAAAUCCGUCGAUAUCUCU (ssRNA) [RNA1 (psbD BLRP 5'-UTR)] bind?
Answer: Result: binds

Question: Does GGACCUCCUUCUCUAUCUCU (ssRNA) [RNA2] bind?
Answer: Result: no binding

Question: Does GGACCGAAUGAUCUAUCUCU (ssRNA) [RNA3] bind?
Answer: Result: no binding
